Residue numbers refer to the chain shown, from its start. Like-named read-outs stand apart in the source and are kept apart here.
T1: human tissue factor pathway inhibitor (TFPI) (human, UniProt P10646 29-304, limits assumed)
T1 construct: bought; also called hTFPI; human TFPI
T1 sequence (looked up): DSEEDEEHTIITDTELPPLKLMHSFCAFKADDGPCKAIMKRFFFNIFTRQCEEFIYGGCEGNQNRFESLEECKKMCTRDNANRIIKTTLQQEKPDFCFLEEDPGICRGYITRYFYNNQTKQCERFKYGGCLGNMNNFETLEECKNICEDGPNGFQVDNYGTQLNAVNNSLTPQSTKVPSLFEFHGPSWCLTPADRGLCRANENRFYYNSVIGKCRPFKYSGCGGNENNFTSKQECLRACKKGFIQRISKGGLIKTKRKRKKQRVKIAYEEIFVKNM

T2: mouse tissue factor pathway inhibitor (TFPI) (mouse, UniProt O54819 29-289, limits assumed)
T2 construct: bought; also called mTFPI; murine TFPI
T2 sequence (looked up): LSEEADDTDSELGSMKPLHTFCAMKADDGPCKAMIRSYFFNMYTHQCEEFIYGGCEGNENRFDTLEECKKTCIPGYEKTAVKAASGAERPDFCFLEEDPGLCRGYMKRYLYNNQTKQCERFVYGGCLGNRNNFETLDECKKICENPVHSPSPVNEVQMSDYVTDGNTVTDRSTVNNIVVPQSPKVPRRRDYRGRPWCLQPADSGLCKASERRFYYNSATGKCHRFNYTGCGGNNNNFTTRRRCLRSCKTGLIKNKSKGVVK

B1: 2A8 HC_F104Y (Fab, V domains shown)
VH: QVQLVESGGGLVQPGGSLRLSCAASGFTFRSYGMSWVRQAPGKGLEWVSSIRGSSSSTYYADSVKGRFTISRDNSKNTLYLQMNSLRAEDTAVYYCARKYRYWYDYWGQGTLVTVSS
VL: DIELTQPPSVSVAPGQTARISCSGDNLRNYYAHWYQQKPGQAPVVVIYYDNNRPSGIPERFSGSNSGNTATLTISGTQAEDEADYYCQSWDDGVPVFGGGTKLTVLG
B2: 2A8 HC_G33K (Fab, V domains shown)
VH: B1 VH with G33K, Y104F
VL: B1 VL
B3: 2A8 HC_G33P (Fab, V domains shown)
VH: B1 VH with G33P, Y104F
VL: B1 VL
notes: also called 2A8-1
B4: 2A8 HC_I51D (Fab, V domains shown)
VH: B1 VH with I51D, Y104F
VL: B1 VL
notes: also called 2A8-12
B5: 2A8 HC_I51E (Fab, V domains shown)
VH: B1 VH with I51E, Y104F
VL: B1 VL
notes: also called 2A8-6
B6: 2A8 HC_K99V (Fab, V domains shown)
VH: B1 VH with K99V, Y104F
VL: B1 VL
notes: also called 2A8-10
B7: 2A8 HC_S35L (Fab, V domains shown)
VH: B1 VH with S35L, Y104F
VL: B1 VL
B8: 2A8 HC_S54D (Fab, V domains shown)
VH: B1 VH with S54D, Y104F
VL: B1 VL
B9: 2A8 HC_S55A (Fab, V domains shown)
VH: B1 VH with S55A, Y104F
VL: B1 VL
B10: 2A8 HC_S55R (Fab, V domains shown)
VH: B1 VH with S55R, Y104F
VL: B1 VL
notes: also called 2A8-8
B11: 2A8 LC_A32N (Fab, V domains shown)
VH: B1 VH with Y104F
VL: B1 VL with A32N
notes: also called 2A8-11
B12: 2A8 LC_D91K (Fab, V domains shown)
VH: B1 VH with Y104F
VL: B1 VL with D91K
notes: also called 2A8-15
B13: 2A8 LC_D91L (Fab, V domains shown)
VH: B1 VH with Y104F
VL: B1 VL with D91L
notes: also called 2A8-16
B14: 2A8 LC_D91R (Fab, V domains shown)
VH: B1 VH with Y104F
VL: B1 VL with D91R
B15: 2A8 LC_D92S (Fab, V domains shown)
VH: B1 VH with Y104F
VL: B1 VL with D92S
B16: 2A8 LC_D92T (Fab, V domains shown)
VH: B1 VH with Y104F
VL: B1 VL with D92T
B17: 2A8 LC_N51V (Fab, V domains shown)
VH: B1 VH with Y104F
VL: B1 VL with N51V
notes: also called 2A8-13
B18: 2A8 LC_N52G (Fab, V domains shown)
VH: B1 VH with Y104F
VL: B1 VL with N52G
B19: 2A8 LC_P54L (Fab, V domains shown)
VH: B1 VH with Y104F
VL: B1 VL with P54L
B20: 2A8 LC_V96G (Fab, V domains shown)
VH: B1 VH with Y104F
VL: B1 VL with V96G
B21: 2A8 LC_V96M (Fab, V domains shown)
VH: B1 VH with Y104F
VL: B1 VL with V96M
B22: 2A8 LC_V96W (Fab, V domains shown)
VH: B1 VH with Y104F
VL: B1 VL with V96W
B23: 2A8 LC_Y48F (Fab, V domains shown)
VH: B1 VH with Y104F
VL: B1 VL with Y48F
notes: also called 2A8-14
B24: 4B7 wild-type Fab (Fab, V domains shown)
VH: QVQLQQSGPGLVKPSQTLSLTCAISGDSVSSNSAAWSWIRQSPGRGLEWLGIIYKRSKWYNDYAVSVKSRITINPDTSKNQFSLQLNSVTPEDTAVYYCARWHSDKHWGFDYWGQGTLVTVSS
VL: DIVMTQSPLSLPVTPGEPASISCRSSQSLVFSDGNTYLNWYLQKPGQSPQLLIYKGSNRASGVPDRFSGSGSGTDFTLKISRVEAEDVGVYYCQQYDSYPLTFGQGTKVEIKR
notes: Fab with HA (or c-myc) and 6xHis tag at the C-terminus of the heavy chain; also called 4B7wt; parental 4B7

Legend:
[1] = target: T1, human tissue factor pathway inhibitor …; assay: competitive ELISA
[2] = target: T2, mouse tissue factor pathway inhibitor …; assay: competitive ELISA
[3] = target: T1, human tissue factor pathway inhibitor …; assay: SPR, TFPI immobilized
[4] = target: T2, mouse tissue factor pathway inhibitor …; assay: SPR, TFPI immobilized
[5] = target: recombinant TFPI of the FXa restoring assay (human, mouse or rat; not specified for Tables 9 and 10); assay: cell-based or functional assay
[6] = target: T1, human tissue factor pathway inhibitor …; assay: SPR, TFPI immobilized; remark: listed apart in the source
[7] = target: T2, mouse tissue factor pathway inhibitor …; assay: SPR, TFPI immobilized; remark: listed apart in the source

Row | variant/wild-type [1] [ratio] | variant/wild-type [2] [ratio] | Improvement [3] [fold] | Kd [3] [nM] | koff [3] [s⁻¹] | kon [3] [M⁻¹ s⁻¹] | also measured | Binder
1 | 2 | 1.5 |  |  |  |  |  | B1
2 | 1.8 | 0.7 |  |  |  |  |  | B2
3 | 5.1 | 2.9 | 2.7 | 0.827 | 0.00224 | 2.71e+06 | Improvement [4]: 2.21 fold; Kd [4]: 1.59 nM; koff [4]: 0.00145 s⁻¹; kon [4]: 912000 M⁻¹ s⁻¹ | B3
4 | 3.9 | 1.4 | 1.63 | 1.37 | 0.00495 | 3.61e+06 |  | B4
5 | 7.3 | 0.7 | 1.78 | 1.26 | 0.00162 | 1.29e+06 | IC50, FXa restoring assay [5]: 0.76 µg/mL; Improvement vs parental, FXa restoring assay [5]: 0.9 fold | B5
6 | 7.5 | 3.9 | 2.25 | 0.995 | 0.00254 | 2.55e+06 | IC50, FXa restoring assay [5]: 0.39 µg/mL; Improvement vs parental, FXa restoring assay [5]: 1.6 fold | B6
7 | 1.7 | 1.5 |  |  |  |  |  | B7
8 | 1.7 | 1.2 |  |  |  |  |  | B8
9 | 2 | 1.2 |  |  |  |  |  | B9
10 | 4.4 | 2.1 | 2.44 | 0.917 | 0.00394 | 4.3e+06 |  | B10
11 | 3.5 | 2 | 1.47 | 1.52 | 0.0041 | 2.7e+06 |  | B11
12 | 3.5 | 1.4 | 4.64 | 0.482 | 0.00209 | 4.33e+06 | IC50, FXa restoring assay [5]: 0.34 µg/mL; Improvement vs parental, FXa restoring assay [5]: 1.9 fold | B12
13 | 4.2 | 1.6 | 2.24 | 0.999 | 0.0044 | 4.41e+06 | IC50, FXa restoring assay [5]: 0.37 µg/mL; Improvement vs parental, FXa restoring assay [5]: 1.7 fold | B13
14 | 3.1 | 2 |  |  |  |  |  | B14
15 | 3.8 | 2.6 |  |  |  |  |  | B15
16 | 2.6 | 1.2 |  |  |  |  |  | B16
17 | 4.4 | 2 | 4.32 | 0.518 | 0.0022 | 4.26e+06 |  | B17
18 | 3.4 | 1.5 |  |  |  |  |  | B18
19 | 5.3 | 2.7 |  |  |  |  |  | B19
20 | 3.2 | 1.2 |  |  |  |  |  | B20
21 | 3.5 | 1.5 |  |  |  |  |  | B21
22 | 4 | 4.3 |  |  |  |  |  | B22
23 | 4.6 | 3.2 | 1.97 | 1.14 | 0.003 | 2.64e+06 | IC50, FXa restoring assay [5]: 0.34 µg/mL; Improvement vs parental, FXa restoring assay [5]: 1.9 fold | B23
24 |  |  | 1 | 11.1 | 0.0084 | 756000 | Improvement [4]: 1 fold; Kd [4]: 58.6 nM; koff [4]: 0.128 s⁻¹; kon [4]: 2.18e+06 M⁻¹ s⁻¹; KD fold improvement [6]: 1 fold; Kd [6]: 11.1 nM; koff [6]: 0.0084 s⁻¹; kon [6]: 756000 M⁻¹ s⁻¹; KD fold improvement [7]: 1 fold; Kd [7]: 54.7 nM; koff [7]: 0.172 s⁻¹; kon [7]: 3.15e+06 M⁻¹ s⁻¹; IC50, FXa restoring assay [5]: 1.46 µg/mL; Improvement vs parental, FXa restoring assay [5]: 1 fold | B24
